Results: publication PMC7568402

Test system: CC(=O)N[C@H]1[C@H](Oc2ccc([N+](=O)[O-])cc2)O[C@H](CO)[C@@H](O)[C@@H]1O
Assay: p-nitrophenol release, A405, non-linear regression
Assay type: biochemical, Bifidobacterium longum subsp. infantis
Details: pH 5.0, 37 °C, 50 mM Na2HPO4, apparent kinetics

| Substance | Km | kcat | kcat/Km |
| --- | --- | --- | --- |
| Blon_2355 (Bifidobacterium longum subsp. infantis ATCC 15697 = JCM 1222 = DSM 20088) | 480 ± 20 µM |  |  |
| Blon_0459 (Bifidobacterium longum subsp. infantis ATCC 15697 = JCM 1222 = DSM 20088) | 330 ± 40 µM |  |  |
| Blon_0732 (Bifidobacterium longum subsp. infantis ATCC 15697 = JCM 1222 = DSM 20088) | 1640 ± 850 µM | 104 ± 46.2 s⁻¹ | 65000 ± 543 M⁻¹ s⁻¹ |
